The record followed here is patent US10654939.

Assay [1] addresses human CD40 expressed on cells (human) (UniProt P25942). The experiment in a line: cell-based or functional assay.
Assay [2] shares this target. The experiment in a line: FACS, HEK293A/humanCD40 cells.
The target of assay [3] is recombinant human CD40 (ECD)-his (human) (UniProt P25942). The experiment in a line: ELISA, hCD40(ECD)-his coated.
Assay [4] has the same target. The experiment in a line: SPR (Biacore 8K), hCD40(ECD)-his coupled to chip, antibody injected. (In general: In SPR one partner is held on a chip, and binding of the other changes the refractive index at the surface.)
Assay [5] has as its target rhesus CD40 expressed on HEK293A cells (rhesus monkey). The experiment in a line: FACS, HEK293A/rhesusCD40 cells.
The target of assay [6] is recombinant rhesus CD40 (ECD)-hFc (rhesus monkey). Put plainly: ELISA, rhCD40(ECD)-hFc coated.
Chain of recombinant rhesus CD40 (ECD)-hFc (rhesus monkey) (P25942 other isoform, or with tags, fused parts or gaps): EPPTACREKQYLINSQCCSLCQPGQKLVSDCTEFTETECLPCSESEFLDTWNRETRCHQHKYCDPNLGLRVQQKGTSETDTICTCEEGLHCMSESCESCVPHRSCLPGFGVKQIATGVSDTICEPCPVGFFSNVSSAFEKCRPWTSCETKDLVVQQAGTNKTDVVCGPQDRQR

Usually EC50 stands for the concentration that produces a half-maximal response. For orientation: Kd means a measure of binding affinity in units of concentration. As a reminder, the koff is the rate constant with which the complex falls apart. The term kon denotes the rate constant with which the complex forms.

Chain of recombinant human CD40 (ECD)-his (human) (P25942 21-193): as the sequence (P25942 other isoform, or with tags, fused parts or gaps) above, with S43G, R56H, L89W, M92T, S95A, P101L, L106S, R142H, Q172L counted along it
Chain of human CD40 expressed on cells (human) (P25942 21-277 limits assumed): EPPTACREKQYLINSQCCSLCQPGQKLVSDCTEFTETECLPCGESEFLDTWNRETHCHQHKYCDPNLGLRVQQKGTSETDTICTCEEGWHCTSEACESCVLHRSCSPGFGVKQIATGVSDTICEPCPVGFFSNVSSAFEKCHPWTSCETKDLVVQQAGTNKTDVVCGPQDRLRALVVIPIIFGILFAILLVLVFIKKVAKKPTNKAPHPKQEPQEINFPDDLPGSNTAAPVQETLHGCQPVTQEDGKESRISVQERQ
Chain of rhesus CD40 expressed on HEK293A cells (rhesus monkey) (P25942 other isoform, or with tags, fused parts or gaps limits assumed): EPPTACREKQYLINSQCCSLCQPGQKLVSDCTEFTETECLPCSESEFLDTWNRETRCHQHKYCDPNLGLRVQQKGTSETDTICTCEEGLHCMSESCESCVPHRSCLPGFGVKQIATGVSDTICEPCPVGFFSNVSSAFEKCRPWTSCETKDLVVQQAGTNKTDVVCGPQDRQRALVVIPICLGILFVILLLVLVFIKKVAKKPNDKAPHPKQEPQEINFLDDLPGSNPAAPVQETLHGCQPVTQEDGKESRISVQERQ

B1: ADC1013 (antibody, INN chains, looked up, V domains shown)
VH: EVQLLESGGGLVQPGGSLRLSCAASGFTFSTYGMHWVRQAPGKGLEWLSYISGGSSYIFYADSVRGRFTISRDNSENALYLQMNSLRAEDTAVYYCARILRGGSGMDLWGQGTLVTVSS
VL: QSVLTQPPSASGTPGQRVTISCTGSSSNIGAGYNVYWYQQLPGTAPKLLIYGNINRPSGVPDRFSGSKSGTSASLAISGLRSEDEADYYCAAWDKSISGLVFGGGTKLTVL
modifications: IgG1/kappa
On to B1, for which the HEK Blue EC50 in assay [1] turned out to be 1.03 µg/mL. Besides, the EC50 amounted to 0.149 µg/mL in assay [2], 0.024 µg/mL in assay [3], 0.0673 µg/mL in assay [5] and 0.0229 µg/mL in assay [6]. For the same molecule, the Kd in assay [4] came out at 29 nM. Besides, in assay [4], the koff worked out at 0.0348 s⁻¹. Besides, in assay [4], the kon turned out to be 1.2e+06 M⁻¹ s⁻¹.
